No end group written: not given here.
Tests used:
TF-FVIIa = TF-FVIIa (Homo sapiens, UniProt P08709); experiment: FX Activation Assay (activation of FX by TF-FVIIa); assay type: biochemical
Protocol: FX Activation Assay—Activation of FX by TF-FVIIa was monitored at room temperature as a function of peptide concentration. Each assay sample contained 100 μl of 460 pM relipidated TF1-243 (TFPC) (Kelley, R. F. et al. (1997) Blood 89:3219-3227) and 30 pM FVIIa in HBS/Ca buffer (20 mM HEPES, pH 7.4, 5 mM CaCl2, 150 mM NaCl, 0.1% PEG 8000); after 20 min, 25 μl of peptide diluted in HBS/Ca Buffer was added. Following a 30 min incubation the reaction was initiated by the addition of 25 μl of 1 μM FX in HBS/Ca (Note: this yields a final concentration of 306 pM TFPC, 20 pM FVIIa, and 166 nM FX). For kinetic analysis, the final concentration of FX was varied from between 20 and 500 nM. Aliquots of 25 μl were removed at 1, 3, 5, 7 and 9 min and quenched in 25 μl of 50 mM EDTA. The FXa generated in each aliquot could be measured by the addition of 100 μl of 250 nM Spectrozyme fXa (American Diagnostica), 50 mM Tris, pH 8, 50 mM NaCl, 0.0025% Triton X-100. The rate of FXa generated at each peptide concentration was proportional to the initial slope of the absorbance at 405 nm vs. time. Sigmoidal curves were fit to a four parameter equation by nonlinear regression analysis (Marquardt, J. Soc. Indust. Appl. Math. 11:431-441 (1963); the concentration of each peptide required to give a half-maximal signal in the assay was calculated from the curves and is referred to as the IC50 value. […]

[1] = test system: TF dependent extrinsic clotting pathway in human plasma; experiment: Prothrombin time (PT) clotting assay
Protocol: Clotting Assays—Prothrombin time (PT) and activated partial thromboplastin time (APTT) clotting time assays were performed in citrated pooled normal plasmas (human or various animal species). Clotting times were determined using an ACL 300 Automated Coagulation Analyzer (Coulter Corp., Miami, Fla.) and commercially available reagents as follows.
For the PT assay, aqueous solutions of inhibitor at various concentrations were added to citrated pooled normal plasma in a ratio of 1 part inhibitor to 9 parts plasma. Following a 30 min incubation, these mixtures were added to sample cups of an ACL 300 Analyzer. Innovin® (Dade International Inc., Miami, Fla.), a mixture of human relipidated tissue factor and Ca^2+ ions was added to the reagent cup. Precise volumes of sample and Innovin® (50 μl sample, 100 μl Innovin) were automatically transferred to cells of an acrylic rotor pre-equilibrated to 37° C. Following a 2 min incubation period, coagulation was initiated by mixing the two components by centrifugation. Coagulation was monitored optically and clotting time was reported in seconds. In this system, the clotting time of control plasmas (plasma plus inhibitor diluent) was typically 8 to 10 seconds. The fold prolongation is the clotting time of the inhibitor relative to the clotting time of the control.
Clotting Assays—The PT clotting assay was carried out as described in Example 1.

Sequence of TF-FVIIa (P08709 61-212 limits assumed): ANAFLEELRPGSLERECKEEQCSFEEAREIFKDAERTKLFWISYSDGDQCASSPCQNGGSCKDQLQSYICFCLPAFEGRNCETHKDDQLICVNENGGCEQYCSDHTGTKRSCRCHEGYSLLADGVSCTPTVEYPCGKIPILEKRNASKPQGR
Sequence of TF-FVIIa (P08709 213-466 limits assumed): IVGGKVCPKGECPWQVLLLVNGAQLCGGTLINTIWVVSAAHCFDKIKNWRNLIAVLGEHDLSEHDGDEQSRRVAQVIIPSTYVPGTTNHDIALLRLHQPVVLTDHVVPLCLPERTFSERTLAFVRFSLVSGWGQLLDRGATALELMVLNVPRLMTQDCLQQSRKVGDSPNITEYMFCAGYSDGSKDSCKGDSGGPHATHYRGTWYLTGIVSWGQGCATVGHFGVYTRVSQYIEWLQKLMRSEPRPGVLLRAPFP
Sequence of TF-FVIIa (P13726 33-275 partner limits assumed): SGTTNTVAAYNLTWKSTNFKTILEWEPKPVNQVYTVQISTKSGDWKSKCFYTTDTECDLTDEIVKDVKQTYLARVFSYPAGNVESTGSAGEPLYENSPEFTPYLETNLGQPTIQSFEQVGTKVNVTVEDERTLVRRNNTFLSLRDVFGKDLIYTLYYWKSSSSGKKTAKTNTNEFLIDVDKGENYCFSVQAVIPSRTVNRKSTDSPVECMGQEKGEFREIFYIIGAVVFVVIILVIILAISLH

For “TF151-Fc: peptide sequence TF151 with a GGGSSG linker fused to the Fc portion of human IgG1, expressed in insect cells; forms a dimer (SQAQRRAVGALCDNPRIDRWYCQFVEGGGGSSG-{human IgG1 Fc}; cysteine pairing not given here; also: dimer)”, the “ability to inhibit FX activation by TF-FVIIa” value (TF-FVIIa) was “comparable to the peptide TF151” and the “prolongation of the prothrombin time (potency)” value [1] was “comparable to peptide TF151”.

— US7084109B2, “FVIIa antagonists” (Genentech, Inc., priority 1999, dated 2006)
